B1: TPR 5TU (parent)
chain: GGAUCUUCUCGAUCUAACAAAAAAGACAAAUCUGCCACAAAGCUUGAGAGCAUCUUCGGAUGCAGAGGCGGCAGCCUUCGGUGGCGCGAUAGCGCCAACGUUCUCAACUAUGACACGCAAAACGCGUGCUCCGUUGAAUGGAGUUUAUCAUG

Variants at the floor of the assay were thinned out.

In this data set the parent is B1. Description: polymerase ribozyme fitness, log enrichment relative to wild type (log ratio); higher = more active; in vitro selection for triplet polymerase activity. In a few lines: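 Libraries of mutants in each subunit of a heterodimeric triplet polymerase ribozyme were generated by PCR and transcribed. In triplicate, each went through one in vitro selection round: annealing with biotinylated primer, partner subunit and triplets; frozen incubation at −7 °C; gel excision of extended constructs; streptavidin-bead capture; RT-PCR. Fitness, taken from Illumina sequencing of input and output libraries, is the logarithm of a genotype's enrichment over wild-type enrichment, averaged across replicates with inverse-variance weights. The logarithm is base 2, and genotypes needed ≥10 input reads and ≥1 read per output to be kept.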
For the variant C18G G92A, the “polymerase ribozyme fitness (log ratio)” value was -3.23. Under A16U C54A A60C A73C G86A A89C A119G G126U stands at most -4.2; under A17U U55A G59C G94U C132G, at most -4.2; under A16U C93U C116U G117U A121G, -2.05.

As for A16U G46C U61A G67C G83C A142C, the “polymerase ribozyme fitness (log ratio)” value was at most -4.2.

Regarding A16U C51U G86U U104A C108A G124U, the “polymerase ribozyme fitness (log ratio)” value is at most -4.2. Under A19C A20G U55A G58U C85A G140C stands at most -4.2; under C18G A20C A22U U55G G62A, -3.57. Consider C18U A52C G86A C99U U146G, for which the “polymerase ribozyme fitness (log ratio)” value is -4.02. Take A17U A24U A52G C57U C96G G140A: the “polymerase ribozyme fitness (log ratio)” value was at most -4.2. Under A17C G86U stands -0.8; under A17G C35U C85G A98C A121U C123A, -1.35.

As to A17C A30U A60C G62A A66G G84A C118A, the “polymerase ribozyme fitness (log ratio)” value was at most -4.2.

As for A17C U56A, the “polymerase ribozyme fitness (log ratio)” value stood at 0.36.

On to A17C C93G, for which the “polymerase ribozyme fitness (log ratio)” value was -3.8. To A19C A91U belongs -3.83; to A17G A20U A52C A89G C95A A106U U134A, at most -4.2; to A17C C105U, 1.03.

Turning to C18U G140U, the “polymerase ribozyme fitness (log ratio)” value was -3.29. Take A17U A20G C63G U134G: the “polymerase ribozyme fitness (log ratio)” value is -3.43. Regarding A19C A49C A60G U101G G141A, the “polymerase ribozyme fitness (log ratio)” value was -2.8. For the variant A16U G83C C129G A137C U145C, the “polymerase ribozyme fitness (log ratio)” value is at most -4.2. As for A17U U61G C76G, the “polymerase ribozyme fitness (log ratio)” value is at most -4.2.

Regarding A17C U33A A73U C96U G128A G140A U146G, the “polymerase ribozyme fitness (log ratio)” value was -3.99. Under A16U C18G G94A stands -2.97. To A17U C32U A52C G84C U90C U109G belongs at most -4.2. For the variant C18G C96U A119U, the “polymerase ribozyme fitness (log ratio)” value is -0.786. To C18U U78A G81U C87G U144A belongs at most -4.2; to A17C G62A C85A, -1.77; to C18A G86A C96U A115C, -2.7. Under A17G C63U G88C stands at most -4.2; under C18U A21G C99G A147U, -0.0193. Take A16U C32G A66U C72U C85G: the “polymerase ribozyme fitness (log ratio)” value is at most -4.2. For the variant C18G A22G A26U U31G U53A G68U C95U A115G, the “polymerase ribozyme fitness (log ratio)” value is at most -4.2. Under C18U A19C A30C A47U U56A G67C G70A C85G C87A C96U A142C stands at most -4.2; under A19C A23G A30C A91G A138U U139G, -4.05; under C18A A73U G86A A110G, at most -4.2. As to A16U A37C C63U C95U C123A G141U, the “polymerase ribozyme fitness (log ratio)” value was -4.01. To A17G U134A belongs -2.69; to A16U U55A, -2.64.

Regarding C18U C57A C95U C96A, the “polymerase ribozyme fitness (log ratio)” value is -1.46.

In the case of A17G A21U A49C G59C G74U C85G, the “polymerase ribozyme fitness (log ratio)” value is at most -4.2. Under A17U A23U A28G U55A G84A stands at most -4.2. A17U A30C C35A U55G U109A: the “polymerase ribozyme fitness (log ratio)” value was -4.11.

As for A16U C51A G74U C87A A107U, the “polymerase ribozyme fitness (log ratio)” value was at most -4.2.

For the variant A17U C85U, the “polymerase ribozyme fitness (log ratio)” value is -1.68. Under A17C C54A C87A C114U stands at most -4.2. With A16U G83U C85U C103G U135G, the “polymerase ribozyme fitness (log ratio)” value is at most -4.2. Consider A17C A120G, for which the “polymerase ribozyme fitness (log ratio)” value amounted to 0.31. For the variant C18A C36A G58A A64U C85A, the “polymerase ribozyme fitness (log ratio)” value was at most -4.2. Take A17G C27A A29U U55A A64G C79A C93U A98G G100U G136A: the “polymerase ribozyme fitness (log ratio)” value was at most -4.2.

Regarding A16U C38G U61A C75G G80A G100A G136U, the “polymerase ribozyme fitness (log ratio)” value is at most -4.2. Under C18U A41G G46A U56G C85A U135G U144C stands at most -4.2; under A17G C27U A41U, -1.51; under A16U C93U A106C, -3.19. Under A17G C93G C108G stands -4.11.

For the variant C18U A19G A21C C35U U55A G92C A147U, the “polymerase ribozyme fitness (log ratio)” value is -2.94. Turning to C18U G42C, the “polymerase ribozyme fitness (log ratio)” value was at most -4.2. Under A17U G86A stands -0.694; under C18U G58A, -0.517.

As to A17U G62U C85U G141U, the “polymerase ribozyme fitness (log ratio)” value is -0.389. Regarding A16U A26G U53C G84C C87A G128C G141A, the “polymerase ribozyme fitness (log ratio)” value is at most -4.2.

Regarding A17G G84U, the “polymerase ribozyme fitness (log ratio)” value is -2. Under C18G C32U A37G A60G C75U C96U stands at most -4.2; under C18U G48U C85A U144C, -2.83; under C18A G50A G68A C96G C99U G136A, at most -4.2. Under A17G A40G G50C C85A stands at most -4.2; under A19C A52G, -0.125.

Take C18G C57A A147U: the “polymerase ribozyme fitness (log ratio)” value was 0.567. C18U U45C A120C: the “polymerase ribozyme fitness (log ratio)” value is -0.849. To A16U A41U belongs -2.64; to C18U G58C A73G C132A, -3.75.

As to C18G G84A, the “polymerase ribozyme fitness (log ratio)” value is -1.41. To A17U A20G A40C G126U belongs -0.583; to A17C U33G G71A C85U G88U U111C A142G U146C, at most -4.2; to A17U A37C U61A C93A C99A C125A U144A, at most -4.2. Under A19C stands 0.425; under C18G C57U G59A G80A G86U, -2.45; under A17U C38U C95U A115C A142U, -3.52. Under C18U C32G C51U C87G stands at most -4.2; under C18A C93U A113U A119C G140U, -4.1; under A17U U44G U56G G128U, at most -4.2. As for A17C C96U A107C, the “polymerase ribozyme fitness (log ratio)” value was -3.77. As to A17G C85U, the “polymerase ribozyme fitness (log ratio)” value is -1.27.

The record behind these values is the RNAGym collection of RNA variant scans (doi:10.1073/pnas.2313332121).
